Results on 1 molecule are retold here after patent US20170258870A1 (NORTHWESTERN UNIVERSITY, published 2017).

Test [1] has as its target T1, recombinant human α-mannosidase (LAMAN) (human, UniProt O00754 50-1011, limits assumed).
T1 sequence (looked up): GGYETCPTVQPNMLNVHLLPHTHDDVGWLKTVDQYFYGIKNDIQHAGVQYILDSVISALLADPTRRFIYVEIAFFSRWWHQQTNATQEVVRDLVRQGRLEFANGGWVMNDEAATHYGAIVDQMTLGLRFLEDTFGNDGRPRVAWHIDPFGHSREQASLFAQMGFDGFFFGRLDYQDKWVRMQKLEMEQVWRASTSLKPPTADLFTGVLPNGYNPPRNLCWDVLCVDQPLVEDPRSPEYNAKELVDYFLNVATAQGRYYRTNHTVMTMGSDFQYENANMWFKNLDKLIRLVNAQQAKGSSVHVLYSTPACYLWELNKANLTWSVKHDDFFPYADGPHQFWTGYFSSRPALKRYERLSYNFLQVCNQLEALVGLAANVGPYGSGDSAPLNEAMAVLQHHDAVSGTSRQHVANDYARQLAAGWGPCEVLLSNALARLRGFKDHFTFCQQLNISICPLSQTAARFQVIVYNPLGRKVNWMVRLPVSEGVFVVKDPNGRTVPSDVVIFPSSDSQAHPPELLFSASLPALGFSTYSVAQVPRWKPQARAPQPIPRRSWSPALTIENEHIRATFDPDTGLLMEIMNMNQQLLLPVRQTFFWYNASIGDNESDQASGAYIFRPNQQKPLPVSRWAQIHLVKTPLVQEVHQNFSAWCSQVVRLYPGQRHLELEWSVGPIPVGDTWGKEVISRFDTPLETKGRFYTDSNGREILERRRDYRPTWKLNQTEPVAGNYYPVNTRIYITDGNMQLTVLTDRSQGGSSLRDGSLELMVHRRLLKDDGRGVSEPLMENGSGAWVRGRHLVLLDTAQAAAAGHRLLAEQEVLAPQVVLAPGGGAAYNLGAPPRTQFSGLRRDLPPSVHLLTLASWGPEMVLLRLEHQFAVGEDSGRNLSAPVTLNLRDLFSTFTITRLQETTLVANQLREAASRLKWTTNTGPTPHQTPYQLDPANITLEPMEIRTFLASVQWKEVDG
The test is described as follows: pulldown with biotinylated peptide on streptavidin beads, neutral pH, coomassie.
Protocol: (§1) The total incubation volume was 250 μl (50 mM NaPhosphate buffer, 150 mM NaCl, pH7). ‘High Capacity Streptavidin Beads’ (Thermo Fisher Scientific, Waltham, USA) were blocked with 1% BSA solution and equilibrated with the NaPhosphate buffer. For each pulldown 50 μl of beads were utilized and incubated with 200 μl enzyme/peptide mixture for 30 min. at room temperature. The remaining 50 μl of the enzyme/peptide samples were prepared for SDS-PAGE (INPUT fraction). After incubation of the beads with the enzyme/peptide mixture the samples were centrifuged for 1 min. at 1,500×g at 4° C. The supernatant was removed and stored at 4° C. (UNBOUND fraction). Subsequently, the beads were washed three times with NaPhosphate buffer followed by centrifugation at 4,000 rpm at room temperature. […] After destaining the gels were scanned.

The target of test [2] is bovine serum albumin (BSA) (bovine, UniProt P02769 25-607). Described as above.
Protocol: as §1

The star is where a group is joined. Biotin = O=C1N[C@H]2[C@H](CS[C@H]2CCCCC(=O)*)N1; Ttds = NCCCOCCOCCOCCCNC(=O)CCC(=O)*

bovine serum albumin (BSA), sequence (P02769 25-607 limits assumed): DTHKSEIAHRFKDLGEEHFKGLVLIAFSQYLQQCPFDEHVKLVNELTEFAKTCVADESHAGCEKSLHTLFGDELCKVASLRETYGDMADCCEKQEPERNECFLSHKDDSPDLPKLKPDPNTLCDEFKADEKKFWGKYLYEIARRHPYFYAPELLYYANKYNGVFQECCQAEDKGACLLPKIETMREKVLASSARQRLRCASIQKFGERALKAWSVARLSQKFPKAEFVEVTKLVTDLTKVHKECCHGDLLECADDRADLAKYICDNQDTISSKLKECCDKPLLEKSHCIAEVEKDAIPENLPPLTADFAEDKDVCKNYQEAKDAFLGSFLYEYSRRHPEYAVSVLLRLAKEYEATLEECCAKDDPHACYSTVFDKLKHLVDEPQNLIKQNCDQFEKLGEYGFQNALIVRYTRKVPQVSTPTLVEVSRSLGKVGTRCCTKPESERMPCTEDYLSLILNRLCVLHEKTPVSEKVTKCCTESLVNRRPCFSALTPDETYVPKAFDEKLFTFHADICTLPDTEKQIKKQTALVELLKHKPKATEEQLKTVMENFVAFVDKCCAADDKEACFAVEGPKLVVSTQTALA

B1: Helix 5 peptide (LIMP-2-derived, L152-E175) (peptide)
peptide: {Biotin-Ttds}-LREIIEAMLKAYQQKLFVTHTVDE-OH
notes: Synthetic peptide from jpt Peptide Technologies; also called wild-type helix 5 peptide; LIMP-2-derived helix 5 peptide
As to B1, the binding result in test [1] and in test [2] was “no binding” throughout.
